This experiment deals with tapasin-ERp57 heterodimer (ER-lumenal domain of tapasin, full-length ERp57 Cys36Ala), disulfide-linked (human) (UniProt P30101). The experiment can be described thus: ITC; Crt or Crt^Δacidic (titrant, 500 µM) into tapasin-ERp57 heterodimer (analyte, 19 µM; no PaSta1 Fab named); 25 °C; 50 mM HEPES-NaOH pH 7.4, 150 mM NaCl, 1 mM CaCl2. In general terms: In ITC the heat of successive injections is recorded.

Usually Kd stands for the constant that tells how readily two partners part at equilibrium. Low values mean higher affinity, high ones lower affinity.

“calreticulin (amino acids 18-417) (from UniProt P27797 18-417) (natural protein)” had a Kd of 4.2 µM.

Source of the values: article PMC13631358.
